The results in this text go back to patent US11298402B2, “Lysosomal degradation of lipids and proteins and method of use thereof” (University of Ottawa, priority 2015, dated 2022).

For series [1], the system named is McA-RH7777 cells stably expressing human apoB-100 and human apoC-III (A18-C3). It counts as cell-based. The settings on record: for effect on EPA-induced lipid degradation (CLD turnover): cells silenced, transfected or pre-treated, then EPA 0.4 mM, 6 h; for effect on lipid degradation when co-expressed with Arl8b^WT, Arl8b^Q75L or Arl8b^T34N: co-transfected cells, 6 h post-OA or -EPA. Here is the method:
(§1) In certain non-limiting examples described herein, McA-RH7777 cells stably expressing human apoB-100 and human apoC-III (designated A18-C3) were used for the studies. […] In addition, these studies, particularly those concerning EPA- or DHA-triggered lysosomal motility and CLD degradation, were also performed using primary rat hepatocytes. Transfection of plasmids encoding proteins of interest, or transfection of siRNA specific for silencing target gene expression, was achieved using the FuGENE HP Extreme reagent (Roche). Representative gene silencing siRNA sequences, which are not meant to be limiting, are described in Table 1, and plasmids encoding proteins of interest are described in Table 2. The effectiveness of siRNA silencing was verified by Western-blotting of cellular content of the target proteins, and by intracellular localization assay using siRNA-Tracker (Mirus Bioscience). Twenty-four h after plasmid transfection, or 48 h after siRNA transfection, the cells were cultured in lipid-rich media containing fetal bovine serum (20%) and OA (0.4 mM). The lipid-laden cells were switched to fresh media supplemented with OA or EPA (0.4 mM). In live imaging experiments, LipidTOX Red (Life Technologies) and LysoTracker (Life Technologies) were added to media prior to EPA treatment, to visualize lipid droplets and lysosomes, respectively. For visualizing peroxisomes, Peroxisome-GFP (Invitrogen) was introduced to the cells 24 h prior to experiments. Quantification of cell lipid contents was achieved either by direct mass measurement (HPTLC) and counting the number of lipid droplets using Image J Lipid Droplet Counter Plug-In, or indirectly by Western blot analysis of cellular content of ADRP. Secretion of apoB and TG-rich lipoprotein was determined by Western blot analysis and metabolic labeling. Mitochondrial β-oxidation was measured using MitoSOX Red (Life Technologies) in situ. Autophagic flux was determined by using Cyto-ID assay (Enzo Life Science) and by monitoring GFP-LC3 clustering in situ. Interaction of Arl8b and subunits of the HOPS complex was determined in situ by the proximity ligation assay (Olink Biosience). Cytoplasmic pH was measured using the cytosolic pHrodo indicator reagent (Invitrogen). Live imaging of fluorescent-tagged proteins was performed 1 h post-EPA treatment. Cells were also collected at the time of EPA treatment for transmission EM and tomography, as well as immuno-EM. For movies, cells were imaged at 60 sec intervals every 5 min, for a total of 30 min.
The A18-C3 cells were cultured in DMEM (Invitrogen) supplemented with fetal bovine serum (20%), penicillin (50 U/mL), streptomycin (50 μg/mL, Invitrogen) and Geneticin/G418 (500 μg/mL, Gibco) at 37° C. in 5% CO2. Transfection was conducted when cells were 60-70% confluence. Appropriate plasmids were mixed with FuGENE HP extreme reagent (Roche Diagnostic), according to manufacturer's protocol, and incubated for 30 min. Twenty-four h after transfection, cells were switched to lipid-rich media containing OA (0.4 mM) for additional 16 h prior to imaging and biochemical analysis. In silencing experiments, appropriate siRNAs were transfected into cells using the X-treme GENE siRNA regent (Roche Diagnostic). Localization of siRNA in transfected cells in situ was carried out using the Cy5 Label IT-siRNA Tracker (Minis Bioscience #7213) according to manufacturer's protocol. Forty-eight h after transfection, cells were switched to lipid-rich media containing OA (0.4 mM) for additional 16 h prior to imaging and biochemical analysis.
Quantification of lipid droplets was carried out using confocal and differential interface contrast (DIC) microscopy. Lipid droplets were stained with LipidTOX Red (Invitrogen) before adding OA or EPA. All images were visualized using a 63× oil immersion objective lens. Z-series stacks were acquired with 0.2 μm steps. […]

For series [2], the system named is McA-RH7777 cells (A18-C3). The series can be described thus: Live imaging of lysosomal motility and lysosome-CLD interaction (kiss-and-run). It counts as cell-based, rat. The settings on record: cells silenced, transfected or pre-treated (15 min) before EPA. Here is the method:
as §1
Cells were grown on 35-mm glass bottom dishes (Ibidi GmbH München, Germany) for 16 h in DMEM supplemented with FBS (20%) and OA (0.4 mM). Cells were imaged using a Zeiss 510 META laser scanning confocal microscope with a heated CO2-controlled stage (5% CO2 at 37° C.). Images were captured at a frame-rate of 30 frame/sec using a 63×. N.A.1.4 objective. Recommended laser lines and filter combinations were used for each dye. For visualization of lipid droplets, lysosomes, mitochondria, and mitochondrial β-oxidation, the respective reagents LipidTOX Red (Invitrogen), LysoTracker (Life Technology), MitoTracker (Life Technology), MitoSox Red (Invitrogen), and Peroxisome-GFP BacMam2.0 (Invitrogen) were introduced into the cells, according to manufacturers' recommendations, prior to EPA treatment.
Cells were cultured with lipid-rich media containing OA (0.4 mM) for 16 h. The lipid-laden cells were switched to fresh media containing EPA (0.4 mM) for 1 h, and the lysosomal movement towards lipid droplets was recorded by time-lapse microscopy. Fluorescent intensity of lysosomal signals at the periphery of selected individual lipid droplet was measured using Image J Live Intensity Profiler Plug-in^31-33 over a period of 40 sec. Quantification for each condition was carried out for 60 individual lipid droplets from three independent experiments. Constant threshold was applied to all of the images in each experiment.

B1: Vps39: HOPS subunit overexpressed from plasmid (GFP-tagged) (protein, UniProt Q96JC1 1-886, looked up)
Vam6/Vps39-like protein: MHDAFEPVPILEKLPLQIDCLAAWEEWLLVGTKQGHLLLYRIRKDVVPADVASPESGSCNRFEVTLEKSNKNFSKKIQQIHVVSQFKILVSLLENNIYVHDLLTFQQITTVSKAKGASLFTCDLQHTETGEEVLRMCVAVKKKLQLYFWKDREFHELQGDFSVPDVPKSMAWCENSICVGFKRDYYLIRVDGKGSIKELFPTGKQLEPLVAPLADGKVAVGQDDLTVVLNEEGICTQKCALNWTDIPVAMEHQPPYIIAVLPRYVEIRTFEPRLLVQSIELQRPRFITSGGSNIIYVASNHFVWRLIPVPMATQIQQLLQDKQFELALQLAEMKDDSDSEKQQQIHHIKNLYAFNLFCQKRFDESMQVFAKLGTDPTHVMGLYPDLLPTDYRKQLQYPNPLPVLSGAELEKAHLALIDYLTQKRSQLVKKLNDSDHQSSTSPLMEGTPTIKSKKKLLQIIDTTLLKCYLHTNVALVAPLLRLENNHCHIEESEHVLKKAHKYSELIILYEKKGLHEKALQVLVDQSKKANSPLKGHERTVQYLQHLGTENLHLIFSYSVWVLRDFPEDGLKIFTEDLPEVESLPRDRVLGFLIENFKGLAIPYLEHIIHVWEETGSRFHNCLIQLYCEKVQGLMKEYLLSFPAGKTPVPAGEEEGELGEYRQKLLMFLEISSYYDPGRLICDFPFDGLLEERALLLGRMGKHEQALFIYVHILKDTRMAEEYCHKHYDRNKDGNKDVYLSLLRMYLSPPSIHCLGPIKLELLEPKANLQAALQVLELHHSKLDTTKALNLLPANTQINDIRIFLEKVLEENAQKKRFNQVLKNLLHAEFLRVQEERILHQQVKCIITEEKVCMVCKKKIGNSAFARYPNGVVVHYFCSKEVNPADT
modifications: GFP tag
On to B1, for which, in series [1], the “effect on EPA-induced lipid degradation (CLD turnover)” value is on record as “promotes the process” and the “effect on lipid degradation when co-expressed with Arl8b^WT, Arl8b^Q75L or Arl8b^T34N” value was “promotes the process”. For the same molecule, the “effect on EPA-triggered lysosomal motility / lysosomal interaction with CLD” value in series [2] is “does not interfere with termination of lysosomal lipid droplet engulfment process and dissociation from CLD”.

B2: Vps11: HOPS subunit overexpressed from plasmid (GFP-tagged) (protein)
chain: AAYLQWRRFVFFEKELVKEPLGNDGATPGAAPTSGPTASKFLCLPPGITVCDSGRGSLVFGDMEGQIWFLPRSLQLTGFQAYKLRVTHLYQLKQHNILASVGEDEEGINPLVKIWNLEKRDGGNPLCTRILPAIPGTEPTVVSCLTVHENLNFMAIGFTDGSVTLNKGDITRDRHSKTQILHKGSYPVTGLAFRQAGKTTHLFVVTTENVQSYIVSGKDYPRVELDTHGCGLRCSALSDPSQDLQFIVAGDECVYLYQPDERGPCFAFEGHKLIAHWFRGYLVIVSRDRKVSPKSEFTSRDSQNSDKQILNIYDLCNKFIAYSAVFEDVVDVLAEWGSLYVLTRDGRVHALQEKDTQTKLEMLFKKNLFEMAINLAKSQHLDSDGLAQIFMQYGDHLYSKGNHDGAVQQYIRTIGKLEPSYVIRKFLDAQRIHNLTAYLQTLHRQSLANADHTTLLLNCYTKLKDSSKLEEFIKTKSESEVHFDVETAIKVLRQAGYYSHALYLAENHAHHEWYLKIQLEDIKNYQEALRYIGKLPFEQAESNMKRYGKILMHHIPEQTTQLLKGLCTDYRPSLEGRGDREFPSCRANSEEFIPIFANNPRELKAFLEHMSEVQPDSPQGIYDTLLELRLQNWAHEKDPQAKEKLHAEAISLLKSGRFCDVFDKALVLCQMHDFQDGVLYLYEQGKLFQQIMHYHMQHEQYRQVIAVCERHGEQEPSLWEQALSYFARKEEDCKEYVAAVLRHIENKSLMPPLLVVQTLAHNSTATLSIIRDYLVQKLQKQSQQIAQDELRVRRYREETTRIRQEIQELKASPKIFQKTKCSICNSALELPSVHFLCGHSFHQHCFESYSESDADCPTCLPENRKVMDMIRAQEQKRDLHDQFQHQLKCSNDSFSVIADYFGRGVFNKLTLLTDPPTARLTPSLEAGLQRDLLMHSRRGT
As to B2, in series [1], the “effect on EPA-induced lipid degradation (CLD turnover)” value was “block lipid degradation” and the “effect on lipid degradation when co-expressed with Arl8b^WT, Arl8b^Q75L or Arl8b^T34N” value was “invariably blocks lipid degradation”. The “effect on EPA-triggered lysosomal motility / lysosomal interaction with CLD” value in series [2] is given as “enhanced lysosomal-CLD interaction”.
